Results on two sequences are retold here after paper PMC4686876.

Like-named read-outs stand apart in the source and are kept apart here.

For series [1], the target named is T1, interferon-gamma (IFNγ) (human) (UniProt P01579).
T1 sequence: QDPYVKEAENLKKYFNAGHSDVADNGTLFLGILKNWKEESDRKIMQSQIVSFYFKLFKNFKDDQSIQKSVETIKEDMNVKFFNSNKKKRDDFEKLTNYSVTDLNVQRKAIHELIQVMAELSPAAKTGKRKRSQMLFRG
The following applies: N = unnatural base Ds at positions 18, 29, 40; SPR (BIAcore T200, biotinylated aptamer on SA chip), 1x PBS (1 mM KH2PO4, 3 mM Na2HPO4) with 205 mM NaCl final, 0.05% NP-40, pH 7.4, 25 °C; IFNγ 1.25-50 nM; cited from earlier work. On the technique in general: Surface plasmon resonance follows binding to a sensor surface in real time, without labels.

The target in series [2] is T1, interferon-gamma (IFNγ) (human). Briefly: SPR. Conditions: SPR (BIAcore T200, biotinylated aptamer on SA chip), 1x PBS (1 mM KH2PO4, 3 mM Na2HPO4) with 205 mM NaCl final, 0.05% NP-40, pH 7.4, 25 °C, IFNγ 1.25-50 nM.

The Kd is the equilibrium constant for the complex coming apart. Turning to “TCCACTCGGGTCATTTANTAATGTAGGTNTGGGCTAGGCNGCTAGTGGA [aptamer 49]”, the Kd is 0.046 nM in series [1] and 0.046 nM in series [2] (N = unnatural base Ds at positions 18, 29, 40).

The sequence “CCCGCCCGGGTCCGCGAAGCGGTAGGTNTGGGCTAGGCNGCTGGCGGGCGCGAAGCG [aptamer 57mhGC]” returned a Kd in series [2] (N = unnatural base Ds at positions 28, 39) of 0.033 nM.
